Assay results: doi:10.1101/404996 (bioRxiv, 2018)

B1: HIV-1 protease Flap+(I54A) (L10I, G48V, I54A, V82A on the pWT backbone) (enzyme)
chain: not shown
B2: HIV-1 protease Flap+(I54) (L10I, G48V, V82A on the pWT backbone) (enzyme)
chain: not shown
B3: HIV-1 protease Flap+(I54V) (L10I, G48V, I54V, V82A on the pWT backbone) (enzyme)
chain: not shown
B4: HIV-1 protease, pseudo wild type (pWT) (enzyme)
chain: not shown

Target: the molecule itself
Experiment: other fluorescence titration

Protein | Kd [nM]
B1 | < 250
B2 | < 250
B3 | < 250
B4 | < 250
